Measurements as given in the DeepSol protein solubility set.

Experiment: soluble on expression in E. coli; label from the status in PepcDB or PDB records
In the case of “WLDHVQNLVPGLDRQGLLEACEFARESEQRAIAAQNSWAEGTSSFQTGLEIAEILADLKLDQESLVAAVIYRGVREGKITLEAVNKHFGPVVAKLIEGVLRMAAISASLNPRHSMVLGTQAQVENLRKMLVAMVDDVRVALIKLAERTCAIRAVKNADEEKRHRVAREVFDIYAPLAHRLGIGHIKWELEDLSFRYLEPDQYKQIAKLLHERRLDREQYIANVMSQLKEALAATGVQADLSGRAKHIYSIWRKMQRKGLDFSQIYDVRAVRVLVPEMRDCYTALGIVHTLWRHIPKEFDDYIANPKENGYRSLHTAVIGPEGKVLEVQIRTHSMHEEAELGVCAHWRYKGTDVKASSNHYEEKISWLRQVLEWHEELGDIGGLAEQLRVDIEPDRVYVFTPDGHAIDLPKGATPLDFAYRVHTEVGHNCRGAKINGRIVPLNYSLQTGEQVEIITGKHSGPSRDWLNSNLGYVTTSRARAKIVHWFKLQARDQNVAAGKALIERELSRLALPPVDFDRLAEKANVRTAEDMFAALGAGDLRLAHLVNYAQQLVEPDRDSEQLELIPRKPSKIGHGKRGDVQIQGVGNLLTQMAGCCQPLPGDPIVGYITLGRGVTIHRQDCATALQLAGREPERMIQVSWGPEPVRTYPVDIAIRAYDRSGLLRDVSQVLLNERINVLAVNTRSNKEDNTATMQLTIEIPGLDALGRLLARVSQLPNIIEARRNR”, the “soluble on expression in E. coli” value is reported as “not soluble”.
With “MSGISIIENAVLKPTKREVAEQWLGYFEHIGSYRFVDPDGQVGIESLIGFDLDRRLVQMPVTYRSAEFDAEHTLTTMDHSVLGTRYVSNAMGDPVAVREYIRVILEADNGAQRSDGKVSVLDVRGSGNREEKLTLGEVRILEATRQRAVGYVRIDGTLRGFVLRVPHLLVPENSPRLGHNISPMRLNGSVVMSPKTVLIAAELSWHDI” the “soluble on expression in E. coli” value was “not soluble”.
In the case of “MSLACGEFSLIARYFDRVRSSRLDVELGIGDDCALLNIPEKQTLAISTDTLVAGNHFLPDIDPADLAYKALAVNLSDLAAMGADPAWLTLALTLPDVDEAWLESFSDSLFDLLNYYDMQLIGGDTTRGPLSMTLGIHGFVPMGRALTRSGAKPGDWIYVTGTPGDSAAGLAILQNRLQVADAKDADYLIKRHLRPSPRILQGQALRDLANSAIDLSDGLISDLGHIVKASDCGARIDLALLPFSDALSRHVEPEQALRWALSGGEDYELCFTVPELNRGALDVALGHLGVPFTCIGQMTADIEGLCFIRDGEPVTLDWKGYDHFATPEGGSHHHHHH”, the “soluble on expression in E. coli” value is reported as “soluble”.
In the case of “MPFKPVEHPKCPKCGKSVYAAEEMSAGGYKWHKFCFKCNMCNKLLDSCTVAPHEAELYCKQCHGRKFGPKGVGFGLGAGCLTTDSGEKFGGSKQT”, the “soluble on expression in E. coli” value is reported as “not soluble”.
In the case of “QVTISITEDCPNNCIHCALPDTKNRAKLSPETVRDVIDQVLEMGTTFVIFDGGEPLTYPGLEELISYVDPEKAITGMFTSGVGLTEERARSLKAAGLYSLTVSFDSAYEEKHDYVRGRKGVFKSAVEAVKNGLAAGLLVNIYVVLSRDNVNELDELYNLAAGLGAHELSFYEIVPTGRWMDHASEIMTPKDMRK”, the “soluble on expression in E. coli” value is reported as “not soluble”.
With “KFDGDDPVIPEWTQGGQIIPTMNLKVGDSVYTRVFDQSGENVAYRTELAISNDVLTQAKNWSYALASKINQEQTKLQAGQYSEDKFTPVYGTNPIYLQSNSGLERVEIGYNIETPVPDYSLTVDGLASEYIIGTEPTALDLTLTAEGDLTAELTVYNHHREPLASWTGSIQDGASEQVELTLSKSEPGHHMLVTRIKDTDGNLVDQQTLDFHLKSEEVTPPPSGEYDFVFPEGLSSYTAGTKVLASDGAIYQCKPFPYSGYCVQWSESATQFEPATGSHWEMAWDKLN” the “soluble on expression in E. coli” value was “not soluble”.
For “MSDLQKLIQGKIKTIAFAHDSTRVIQCFIQYGNEEQRKQAFQELQGDLVELSKAKYSRNIVKKFLMYGSKPQAAEIIRSFKGHVRKMLRHSEASAIVEYAYNDKAILEQRNMLTEELYGNTFQLYKSADHPTLDKVLELQPAKLELIMDEMKQVLTPMAQKEAVIKHSLVHKVFLDFFTYAPPKPRSELIEAIREAVVYLAHTHDGARVAMHCLWHGTPKDRKVIVKTMKTYVERVANVSAARARFLKSD”, the “soluble on expression in E. coli” value was “not soluble”.
For “ASASYYEQYHSLNEIYSWIEFITERHPDMLTKIHIGSSFEKYPLYVLKVSGKEQAAKNAIWIDCGIHAREWISPAFCLWFIGHITQFYGIIGQYTNLLRLVDFYVMPVVNVDGYDYSWKKNRMWRKNRSFYANNHCIGTDLNRNFASKHWCEEGASSSSCSETYCGLYPESEPEVKAVASFLRRNINQIKAYISMHSYSQHIVFPYSYTRSKSKDHEELSLVASEAVRAIEKTSKNTRYTHGHGSETLYLAPGGGDDWIYDLGIKYSFTIELRDTGTYGFLLPERYIKPTCREAFAAVSKIAWHVIRNV”, the “soluble on expression in E. coli” value was “soluble”.
For “MGSDKIHHHHHHGVDTKGPAGIDATELYASLDLSLLVGNSNVTTKSSELTGPTDGTEENMTKDERSVSDCYIAIFKYDSKTKNVGDFLTSYYSSNGSISESLIFKIPKDKSERTDLKIVVIANAAASVSKYGLASASQISYADLKGKTLVEVPNVFVKVGETEIAKGDGGTYPDNKGGVYVNISEKILGLDQPANTPVEVKLIQRTAAIMLQQFKILKSDGTEYDNVEIKGLSLLNSKTIGQVAGEVSSGEKLYGMQSVNGTTERLYSYENTSSSQPTTLKIDYVYNNGETGSCSFPIKSRLSEASDPKAEVWAGYLYKLTVKLTNAAVDVTVKCVTQDWVFNKDHELEFTF”, the “soluble on expression in E. coli” value was “not soluble”.
For “MGFFNFIKTVGEKLGIGDSEPTEKDFKTAFDNFQLGTEKVNIQVENGKVVLSGEVPDRETLEKALLVVGNAQGISSVDIGQLKVADTACMKASRFYEVKSGDNLWKIAEEVYGKGQGDKNTFIFEANKPMLKSPDKIYPGQVLRIPEIDRA”, the “soluble on expression in E. coli” value was “not soluble”.
For “MTRYALLVRGINVGGKNKVVMAELRQELTNLGLEKVESYINSGNIFFTSIDSKAQLVEKLETFFAVHYPFIQSFSLLSLEDFEAELENLPAWWSRDLARKDFLFYTEGLDVDQVIATVESLELKDEVLYFGKLGIF”, the “soluble on expression in E. coli” value was “not soluble”.
For “MSLAQSIVVVAEPSHSDLYDLLAVGNAGIRLVSAAGLSTAIGPSDPDIVILDSGTDADGGITLLGEIKALRNDLPVIFLTDSSSEEIVLKAFRKGAREYFRKPVDLHVLQHAVETILALRRMQRERRDPLKRHYSDPINLPDDLPESIGRAVMHIKSNYDCALYLDDLARAAHLSKFHFCRNFKKYIGVSPMRFMNMVKISKAETLLRRADLTISTVAYKLGFNDPSEFTRQFKSITGISPSAFRRSCLSEGHHHHHH”, the “soluble on expression in E. coli” value was “not soluble”.
For “MLKRCNFKNQVKYFQSDFEQLIRQHPEKIIILDFYATWCGPCKAIAPLYKELATTHKGIIFCKVDVDEAEDLCSKYDVKMMPTFIFTKNGDAIEALEGCVEDELRQKVLEHVSAQ”, the “soluble on expression in E. coli” value was “not soluble”.
In the case of “MFKLFTARQHDKIWDFDGGIHPPEMKLQSSTVPMRIAPLPDQLIIPLQQHLGPEGELRVRAGEQVLKGQPLTVGRGRTVPVHAPTSGMITAIAPHTTAHPSGLAELCVHITPDGEDRWREQQPWADYRQRDKMALLDRIHQAGIAGLGGAGFPTASKLQGGLNGIITLIINAAECEPYITADDRLMQEHADEVITGIHILRHLLQPQQVLIGIEDNKPEAIAALQRALRGQDDIHLRVVPTKYPSGGAKQLTKILTGKEVPFGKHSSSIGVLMQNVGTVVAIKRAVIDDEPLIERVVTLTGDALSSPGNFWARIGTPVLYLLKLAGFKPQNPPMVIMGGPLMGFTLPSLDVPIVKISNCILAPAETEMGLSEPEQSCIRCGLCVDACPAGLLPQQLYWFSRGEEHEKARNHNLFDCIECGACAYVCPSNIPLVQYYRQEKAEIRALDQESARAAEAKARFEAKQARLAREKLARELRHKQAAVKLTDADQQTVDAAVSRLTRQSDGSESVINIPAGQMPDNSAVIAAREARKAQARARQAEKQQARSTEETTDVVDPRQAAVAAAIARVKAKKAVQAQHVTTDVAEAGSEAMAEDPRKAAVAAAIARVKAKKAAQAINPD”, the “soluble on expression in E. coli” value is reported as “not soluble”.
For “MGSDKIHHHHHHMSQMSFSDFEYAGKRKQTRRERFLAEMDQVVPWAGLLGLIEPFYPKAGGGRKPYPLETMLRIHLLQNWFSLSDPAMEEALYEITPMRQFAHLTLSAPIPEDTTIMNFRHLLEKHQLAPAILAVINGYLQEKGLSLRQGTIVDATIIHVPSSTKNKDGERDPEMHQTKKGNQYFFGMKAHISADVESGLVHHVHGTAANVADVTQVAELLHGEENAVYADAGYTGVEKREEHENRDVIWQIAARRSTYSKLNKRSLLYKAKRKIEYCKAQTRAKVEHPFRVIKRQFGYVKVRFRGLMKNTAQLTTLFALSNLWMARKRLMGLGELRI”, the “soluble on expression in E. coli” value was “not soluble”.
With “NSLFNQEVQIPLTESYCGPCPKNWICYKNNCYQFFDESKNWYESQASCMSQNASLLKVYSKEDQDLLKLVKSYHWMGLVHIPTNGSWQWEDGSILSPNLLTIIEMQKGDCALYASSFKGYIENCSTPNTYICMQRTV” the “soluble on expression in E. coli” value was “soluble”.
In the case of “MSLDVEDTVKKLNLKFRNIEGERLILAITCDENKNVLMVAFMNEEALKKTLETGYMHYYSTSRKKLWRKGEESGNVQKLIKFYRDCDGDALLFIVEQKGVACHEGYYSCFHYKIEDGELKITGEYYSKREGHHHHHH”, the “soluble on expression in E. coli” value is reported as “soluble”.
In the case of “RVMLRQTQYLNEAIKLMASKNLSVPFGMDCKDEYGDVARELEKTRRQLHDVIQMQINASDELATLTEVMTLSMSETKESA”, the “soluble on expression in E. coli” value is reported as “not soluble”.
For “MAHHHHHHMRFFKSDGTPYNSDMTDTLHGSEYVHRGGVEAIVEGVAAGQYAEHKPRAIMFVNKRPVEIIPQEENLLEVLEREGIRVPKFCYHPILSVAGNCRMCLVQVDGTQNLVVSCATVALPGMSIITDSRLVRDAREGNVELILINHPNDCPICEQATNCDLQNISMNYGTDIPRYKEDKRAVQDFYFDPQTRVVLNRCIHCTRCVRFLNEHAQDFNLGMIGRGGLSEISTFLDELEVKTDNNMPVSQLCPVGKLYLGDADENNAVADELDASEQAYAVATS”, the “soluble on expression in E. coli” value was “soluble”.
With “MAHHHHHHMVNFILNEAKDKAHEIEAKALEDFNIEKLRIVQKMKEKIRVEFQKKAKQMEIKRSIARSSAINKARLKKMCAKDQVFKEIYKISSDKLNDLYKDKDKYKNLIVDLIVQSLFYMQEPHVIVRCRDIDKAVVESSLNEAVSKYTDKLKKQFNVTKTVKIELDKSGNYLPPPPTPENEGNSCLGGVILTTPNRKINCDNTLDVRLKLAIEYCTPEIKRMFFENA” the “soluble on expression in E. coli” value was “not soluble”.
With “MGHHHHHHSHVAVQTASKQVDGDYVVSEWSEIIEFCTADYSKVHLTQLLEKAEVIAGRMLKFSVFYRNQHKEYFDYVREHHGNAMQPSVKDNSGSHGSPISGKLEGIFFSCSTEFNTGKPPQDSPYGRYRFEIAAEKLFNPNTNLYFGDFYCMYTAYHYVILVIAPVGSPGDEFCKQRLPQLNSKDNKFLTCTEEDGVLVYHHAQDVILEVIYTDPVDLSLGTVAEITGHQLMSLSTANAKKDPSCKTCNISVGR” the “soluble on expression in E. coli” value was “not soluble”.
With “MGHHHHHHSHPRPEQHKSYKIRFNSISCSDPLVSSWRRKRKESSNTDSAGALGTLRFCVFGLGSRAYPHFCAFARAVDTRLEELGGERLLQLGQGDELCGQEEAFRGWAQAAFQAACETFCVGEDAKAAARDIFSPKRSWKRQRYRLSAQAEGLQLLPGLIHVHRRKMFQATIRSVENLQSSKSTRATILVRLDTGGQEGLQYQPGDHIGVCPPNRPGLV” the “soluble on expression in E. coli” value was “not soluble”.
In the case of “MADKYLTQSPAGEFVMFASDDGEVRVECRFEQETLWLPQATIANLYQITPQAVTQHIKAIYEEGELEQNATCKSYLQVQQEGSRQVSRNRLHYSLPVILAVGYRVRSPRGTQFRQWATQTLQKYLIKGFVMDDERLKNPPVGSSAVPDYFDEMLERIRDIRASERRVYLRVREIFALAADYQPSLKETTQFFQTIQNKLHFACTGHTAAELIHQRADASQPHMGLTSYKGEEVRKDDVTVAKNYLTQDEVSELNRVVNMWLDFAEDQARRRQQIFLRDWQDKLDQFLQFNDREVLQGAGKVTKKMADEKAQAEYSQFAEQQRRLKEAEGEKDIAGLLQWETEPKK”, the “soluble on expression in E. coli” value is reported as “not soluble”.
